No end group written: not given here.

Consider one molecule from PMC5308906 (2016).

The experiment has as its target T1, ψIRS1-Cargo V5 (Homo sapiens, UniProt Q05655, not fully specified).
T1 chain: EKARLSYS
Briefly: AGILE Dev Kit binding assay.

B1: θPKC (protein)
chain: MSPFLRIGLSNFDCGSCQSCQGEAVNPYCAVLVKEYVESENGQMYIQKKPTMYPPWDSTFDAHINKGRVMQIIVKGKNVDLISETTVELYSLAERCRKNNGKTEIWLELKPQGRMLMNARYFLEMSDTKDMNEFETEGFFALHQRRGAIKQAKVHHVKCHEFTATFFPQPTFCSVCHEFVWGLNKQGYQCRQCNAAIHKKCIDKVIAKCTGSAINSRETMFHKERFKIDMPHRFKVYNYKSPTFCEHCGTLLWGLARQGLKCDACGMNVHHRCQTKVANLCGINQKLMAEALAMIESTQQARCLRDTEQIFREGPVEIGLPCSIKNEARPPCLPTPGKREPQGISWESPLDEVDKMCHLPEPELNKERPSLQIKLKIEDFILHKMLGKGSFGKVFLAEFKKTNQFFAIKALKKDVVLMDDDVECTMVEKRVLSLAWEHPFLTHMFCTFQTKENLFFVMEYLNGGDLMYHIQSCHKFDLSRATFYAAEIILGLQFLHSKGIVYRDLKLDNILLDKDGHIKIADFGMCKENMLGDAKTNTFCGTPDYIAPEILLGQKYNHSVDWWSFGVLLYEMLIGQSPFHGQDEEELFHSIRMDNPFYPRWLEKEAKDLLVKLFVREPEKRLGVRGDIRQHPLFREINWEELERKEIDPPFRPKVKSPFDCSNFDKEFLNEKPRLSFADRALINSMDQNMFRNFSFMNPGMERLIS
B1 came in with a Kd of 200 nM.
